According to US11976099B2, “Compositions and methods for treatment of bone associated diseases” (THE NATIONAL INSTITUTE FOR BIOTECHNOLOGY IN THE NEGEV LTD., priority 2016, dated 2024):
Positions count from the first letter of the chain named. Names may count otherwise. “Also recorded” adds a separate entry of the source. One block for each molecule: values may come before it.

Target: T1, murine c-FMS (Mus musculus, UniProt P09581)
T1 construct: endogenous in cells; host or cells: primary bone marrow derived monocytes from wild-type C57BL6 mice
T1 sequence (P09581 20-977): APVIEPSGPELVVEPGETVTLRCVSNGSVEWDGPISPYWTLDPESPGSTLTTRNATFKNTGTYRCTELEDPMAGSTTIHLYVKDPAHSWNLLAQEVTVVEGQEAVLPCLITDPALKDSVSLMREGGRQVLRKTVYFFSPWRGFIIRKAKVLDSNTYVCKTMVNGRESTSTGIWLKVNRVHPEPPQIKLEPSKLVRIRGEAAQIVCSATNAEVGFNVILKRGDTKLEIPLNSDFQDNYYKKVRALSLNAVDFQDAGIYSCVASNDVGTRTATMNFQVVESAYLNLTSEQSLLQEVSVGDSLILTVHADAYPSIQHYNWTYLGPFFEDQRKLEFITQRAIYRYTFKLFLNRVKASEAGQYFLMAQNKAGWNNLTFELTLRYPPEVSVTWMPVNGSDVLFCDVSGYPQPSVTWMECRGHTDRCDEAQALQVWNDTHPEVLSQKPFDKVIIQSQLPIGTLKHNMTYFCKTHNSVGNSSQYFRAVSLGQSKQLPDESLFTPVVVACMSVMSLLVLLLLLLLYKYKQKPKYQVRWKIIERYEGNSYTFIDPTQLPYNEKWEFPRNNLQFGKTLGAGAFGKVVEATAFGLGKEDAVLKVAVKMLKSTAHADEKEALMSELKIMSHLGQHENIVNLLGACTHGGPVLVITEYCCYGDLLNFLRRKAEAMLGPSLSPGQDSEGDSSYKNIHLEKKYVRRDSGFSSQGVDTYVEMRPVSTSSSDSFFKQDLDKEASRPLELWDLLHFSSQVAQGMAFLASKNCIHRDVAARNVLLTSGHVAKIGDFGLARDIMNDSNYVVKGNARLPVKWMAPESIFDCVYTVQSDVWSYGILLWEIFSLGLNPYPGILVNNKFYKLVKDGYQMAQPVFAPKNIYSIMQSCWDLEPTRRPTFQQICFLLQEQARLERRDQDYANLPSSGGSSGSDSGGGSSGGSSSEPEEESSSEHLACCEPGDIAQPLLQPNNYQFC
Assay: c-FMS phosphorylation assay in BMMs (western blot)
Type: cell-based
Settings: for c-FMS phosphorylation level: 0.5 nM murine M-CSFWT + 1 μM variant, versus control
Method: Phosphorylation assay—The experiment was performed on two cell types, BMMs and human peripheral blood CD14^+ monocytes, as follows: (i) BMMs from wild-type C57BL6 mice were purified by flushing the bone marrow from the femur and tibia as previously described (Levaot, N., Simoncic, P. D., Dimitriou, I.D., Scoffer, A., La Rose, J., Ng, A. H. M. et al. (2011) J. Clin. Invest. 121, 3244-3257). The cells were treated with ACK red cells lysis buffer (ThermoFisher Scientific, USA) and grown in complete α-MEM growth medium (Sigma-Aldrich, USA) containing 10% fetal bovine serum (FBS) (selected to not contain LPS to prevent macrophage differentiation), penicillin, streptomycin and L-glutamine. Recombinant murine M-CSF was added at a concentration of 40 ng/ml (Peprotech, Israel) for three days at 37° C. to induce adhesion and proliferation of monocytes. Then, 7×10^5 cells were transferred into a 6-well plate with complete α-MEM and 20 ng/ml murine M-CSF and RANKL (R&D Systems, USA) for 48 h. (ii) CD 14^+ monocytes (Lonza, Switzerland) were grown in complete α-MEM medium for five days in the presence of human M-CSF (20 ng/mL). Then, 3.5×10^5 cells were transferred to a 24-well plate with complete α-MEM medium, […] human M-CSF (R&D Systems, USA) and 20 ng/ml murine RANKL for 72 h. At this point, the medium was replaced with a starvation medium (α-MEM without FBS) for 4 h. After starvation, the cells were washed with PBS and incubated in a starvation medium containing 0.5 nM murine (BMMs) or human (CD14+) M-CSF and 100 nM (CD14^+ cells) or 1 μM (BMMs) of either M-CSFC31S or M-CSFC31S,M27R for 1 min. To test the phosphorylation levels in the absence of murine M-CSFWT, we incubated 0.5, 5, 10, 50, 1000 and 5000 nM of M-CSFC31S or M-CSFC31S,M27R and 0.5,5.10 nM of human M-CSFWT with the cells. The positive control contained 0.5 nM murine (BMMs) or human (CD14^+) M-CSF, and the negative control was incubated in starvation medium without any added protein. The cells were transferred to ice, and lysis buffer (deoxycholate 0.5%, […], 10 mM NaPO4, 1 mM sodium orthovanadate, 5 mM EDTA, pH 7.4, 5 mM EGTA, pH 7.4, 100 mM NaCl, 2% Triton X-100) was added. […] The images were quantified using ImageJ. The quantified intensity values of the phosphorylated c-FMS for each sample were divided by the total c-FMS intensity, and then by the β-actin expression intensity. […]
To determine whether M-CSFC31S,M27R binds and also antagonizes c-FMS, the phosphorylation of the receptor following incubation with different M-CSF variants was evaluated. […] The cells were lysed, and the expression and phosphorylation levels of c-FMS were evaluated using western blot. C-FMS phosphorylation level was quantified and normalized. […]

c-FMS phosphorylation level (BMMs): increased levels of phosphorylation
B1: M-CSFM: 158 amino acid M-CSF with cysteine at position 31 replaced by serine (SEQ ID NO: 2) (protein)
chain: EEVSEYCSHMIGSGHLQSLQRLIDSQMETSSQITFEFVDQEQLKDPVCYLKKAFLLVQDIMEDTMRFRDNTPNAIAIVQLQELSLRLKSCFTKDYEEHDKACVRTFYETPLQLLEKVKNVFNETKNLLDKDWNIFSKNCNNSFAECSSQGHERQSEGS

peak concentration of bell-shaped c-FMS phosphorylation curve (BMMs, 1 minute, without murine M-CSF): 5 nM
B2: M-CSFWT: wild-type human M-CSF, disulfide-bond-linked homodimer which binds and activates c-FMS (protein)
chain: B1 chain with S31C

c-FMS phosphorylation level (BMMs): lower levels of phosphorylated c-FMS
B3: M-CSFC31S,M27R: M-CSF double mutant containing both C31S and M27R; monomeric, monospecific c-FMS antagonist (protein)
chain: B1 chain with M27R
c-FMS phosphorylation (agonist activity) (0.5-5000 nM without murine M-CSF): very limited c-FMS phosphorylation at any concentration other than 5 μM; also recorded: did not exhibit phosphorylation capabilities in concentrations lower than 5 μM
